system: Escherichia coli TOP10; experiment: shrunken log2 fold change of peptide-encoding DNA abundance (4.5 h post-induction vs induction); higher = less antimicrobial activity (less host growth inhibition); conditions: time post-induction: 4.5 h; library: site-saturation at positions 5, 18, 19, 20
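Also: peptides expressed intracellularly from a pBAD plasmid library in pooled LB shake-flask culture, induced with 0.3% L-arabinose, DNA abundance read by NGS, three biological replicates, DESeq2 with apeglm shrinkage.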

Sequence	shrunken log2 fold change
RRIRSRPPRLPRPRPRPWCYPRP	-0.263
RRIRKRPPRLPRPRPRPYCWPRP	-0.315
RRIRQRPPRLPRPRPRPNRYPRP	-0.0216
RRIRDRPPRLPRPRPRPLDEPRP	0.034
RRIRCRPPRLPRPRPRPYVFPRP	-0.362
RRIRNRPPRLPRPRPRPHLGPRP	-0.317
RRIRMRPPRLPRPRPRPLQQPRP	2.85
RRIRFRPPRLPRPRPRPLSTPRP	-0.47
RRIRHRPPRLPRPRPRPVGNPRP	0.0182
RRIRMRPPRLPRPRPRPHEDPRP	0.465
RRIRTRPPRLPRPRPRPVPSPRP	0.0454
RRIRTRPPRLPRPRPRPKSRPRP	-0.0444
RRIRKRPPRLPRPRPRPRNHPRP	0.197
RRIRFRPPRLPRPRPRPYEEPRP	-0.221
RRIRPRPPRLPRPRPRPCFHPRP	-0.202
RRIRVRPPRLPRPRPRPMLLPRP	-0.322
RRIRIRPPRLPRPRPRPMFHPRP	-0.517
RRIRGRPPRLPRPRPRPPKVPRP	0.762
RRIRNRPPRLPRPRPRPKNSPRP	-0.161
RRIRDRPPRLPRPRPRPAIFPRP	0.617

Sequence	shrunken log2 fold change
RRIRCRPPRLPRPRPRPMRKPRP	0.249
RRIRSRPPRLPRPRPRPWKDPRP	-0.00804
RRIRMRPPRLPRPRPRPLGMPRP	-0.112
RRIRKRPPRLPRPRPRPLLNPRP	-0.295
RRIRGRPPRLPRPRPRPLVLPRP	0.401
RRIRPRPPRLPRPRPRPQHAPRP	0.041
RRIRYRPPRLPRPRPRPKAFPRP	0.0171
RRIRARPPRLPRPRPRPVMDPRP	0.671
RRIRFRPPRLPRPRPRPWFPPRP	-0.0773
RRIRMRPPRLPRPRPRPGEMPRP	0.0709
RRIRQRPPRLPRPRPRPMFSPRP	0.0442
RRIRDRPPRLPRPRPRPGSFPRP	0.0331
RRIRNRPPRLPRPRPRPTLYPRP	-0.3
RRIRMRPPRLPRPRPRPAAIPRP	0.456
RRIRCRPPRLPRPRPRPLAGPRP	0.153
RRIRLRPPRLPRPRPRPVFDPRP	-0.251
RRIRRRPPRLPRPRPRPTLEPRP	0.607
RRIRDRPPRLPRPRPRPSFHPRP	-0.429
RRIRLRPPRLPRPRPRPTQYPRP	-0.696
RRIRMRPPRLPRPRPRPQDNPRP	0.013

Sequence	shrunken log2 fold change
RRIRFRPPRLPRPRPRPMIYPRP	-0.441
RRIRCRPPRLPRPRPRPKGMPRP	-0.148
RRIRYRPPRLPRPRPRPRAAPRP	-0.0447
RRIRARPPRLPRPRPRPDPTPRP	0.447
RRIRRRPPRLPRPRPRPRIRPRP	0.179
RRIRVRPPRLPRPRPRPYPYPRP	-0.0982
RRIRFRPPRLPRPRPRPLTLPRP	-0.337
RRIRPRPPRLPRPRPRPYIVPRP	-0.15
RRIRFRPPRLPRPRPRPLAKPRP	0.182
RRIRWRPPRLPRPRPRPTVYPRP	0.116
RRIRGRPPRLPRPRPRPGGSPRP	0.92
RRIRFRPPRLPRPRPRPAQIPRP	-0.00279
RRIRIRPPRLPRPRPRPFGYPRP	-0.478
RRIRMRPPRLPRPRPRPDGSPRP	0.107
RRIRFRPPRLPRPRPRPAEGPRP	0.234
RRIRRRPPRLPRPRPRPVVQPRP	0.534
RRIRIRPPRLPRPRPRPPHQPRP	0.000816
RRIRHRPPRLPRPRPRPVYFPRP	-0.508
RRIRERPPRLPRPRPRPEYDPRP	-0.00663
RRIRDRPPRLPRPRPRPINMPRP	0.00272
